Results: US20220289830A1

B1: 2D3 (antibody, V domains shown)
VH: EVQLLESGGGLVQPGGSLRLSCTASGFTFSDNHMSWVRQAPGKGLDWVSGISESGGSTYYADSVKGRFSTSRDNSKSTLYLDMNSLRAEDTAIYYCAKGRFSYDTRHFFRAVYGMDVWGQGTAVTVSS
VL: DIQLTQSPSSLSASVGDRVTITCRASQGISSYLAWYQQKPGKAPKLLIYAASTLQSGVPSRFSGSGSGTDFTLTISSLQPEDFATYYCQQLSSYPLSFGGGTKVEIK
B2: 7B1-1F5 (antibody, V domains shown)
VH: EVQLLESGGGLVQPGGSLRLSCTASGFTFSDNYMSWVRQAPGKGLDWVSVISESGGSTNYADSVKGRFSTSRDNSKSTLYLDMNSLRAEDTAIYYCAKGRFSTLSSHFFRAVYGMDVWGQGTAVTVSS
VL: DIQLTQSPSSFSASTGDRVTITCRASQGISSYLAWYQQKPGKAPKVLIYAASTLQSGVPSRFSGSGSGTEFTLTISSLQPEDFATYYCQQLKSYPLTFGGGTKLEIK
B3: 9B12 (antibody, V domains shown)
VH: EVQLLESGGGLVQPGGSLRLSCTASGFTFSDNPMSWVRQAPGKGLDWVSVISESGGSTNDADSVKGRFSTSRDNSKSTLYLDMNSLRAEDTAIYYCAKGRFSTNSDHFYRAVYGMDVWGQGTAVTVSS
VL: DIQLTQSPSSLSASVGDRVTITCRASQGISSYLAWYQQKPGKAPKLLIYAASTLQSGVPSRFSGSGSGTDFTLTISSLQPEDFATYYCQQLSSYPLTFGGGTKVEIK

biological target: native PcrV on live Pseudomonas aeruginosa (strains O6-57/66, O11-PA103, O1-52/66, O16-177/81) (Pseudomonas aeruginosa); assay: cell-based or functional assay

Binder	RBC lysis assay IC50 (P. aeruginosa strain 57/66(O6))
B1	0.05 µg/mL
B2	0.19 µg/mL
B3	0.07 µg/mL
